Measured values published in paper PMC9445180.

How the values were obtained:
[1] = target: HTRA3^PD/PDZ-ΔLoopA (human) (UniProt P83110); assay: SEC; HTRA proteins and their LoopA deletion mutants alone; Superdex 200 Increase 3.2/300; 200 mM NaCl, 20 mM HEPES pH 7.5, 0.25% CHAPS; size against gel filtration standard
[2] = target: HTRA2^PD/PDZ-ΔLoopA (human) (UniProt O43464); assay: as above

Substance | stoichiometry N [1] | stoichiometry N [2]
HTRA3^PD/PDZ-ΔLoopA (from UniProt P83110 130-453) (domain or fragment) | 3 | –
HTRA2^PD/PDZ-ΔLoopA (from UniProt O43464 134-458) (domain or fragment) | – | 3
